Assay results: US20220119534A1 (DRAGONFLY THERAPEUTICS, published 2022)

What was measured:
mFc-hNKG2D = molecular target: T1, mFc-hNKG2D (human, UniProt P26718 73-216); experiment: SPR Biacore 8K 37 C; mFc-hNKG2D captured on anti-mFc chip, TriNKET as analyte; steady state affinity fit; average of 4
T1 construct: extracellular domain; Made in house (Dragonfly Tx); the order of tag and ECD follows the name mFc-hNKG2D; also called mFc-tagged human NKG2D; not shown: mouse Fc tag
T1 sequence (looked up): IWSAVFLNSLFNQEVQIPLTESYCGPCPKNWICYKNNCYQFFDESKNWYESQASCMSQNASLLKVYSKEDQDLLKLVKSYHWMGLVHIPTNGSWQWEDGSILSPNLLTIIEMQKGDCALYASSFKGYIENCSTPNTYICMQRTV

Human CLEC12A-His = molecular target: T2, Human CLEC12A-His (human, UniProt Q5QGZ9 65-265); experiment: SPR Biacore 8K 37 C; TriNKET captured on anti-hFc chip, hCLEC12A-His as analyte; 1:1 fit; pH 5.0 control, n=2
T2 construct: Recombinant soluble protein made in house (Dragonfly Tx); The hCLEC12A spot of the HuProt array is written under this molecule as well; also called hCLEC12A-His; hCLEC12A; not shown: His tag
T2 sequence: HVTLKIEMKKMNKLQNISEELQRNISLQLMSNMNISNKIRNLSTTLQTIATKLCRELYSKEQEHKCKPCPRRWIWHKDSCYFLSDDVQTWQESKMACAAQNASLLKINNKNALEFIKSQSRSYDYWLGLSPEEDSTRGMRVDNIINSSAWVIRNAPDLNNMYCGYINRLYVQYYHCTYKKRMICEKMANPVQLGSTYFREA

B1: F3'-1602 TriNKET (bispecific antibody, human IgG1, kappa)
chain: QLQLQESGPGLVKPSETLSLTCTVSGFSLTNYGLHWIRQPPGKCLEWIGVIWSGGKTDYNPSLKSRVTISKDTSKNQFSLKLSSVQAADTAVYYCAKYDYDDSLDYWGQGTLVTVSSGGGGSGGGGSGGGGSGGGGSDIQMTQSPSSLSASVGDRVTITCHASQNINFWLSWYQQKPGKAPKLLIYEASNLHTGVPSRFSGSGSGTRFTLTISSLQPEDIATYYCQQSHSYPLTFGCGTKLEIKGSDKTHTCPPCPAPELLGGPSVFLFPPKPKDTLMISRTPEVTCVVVDVSHEDPEVKFNWYVDGVEVHNAKTKPREEQYNSTYRVVSVLTVLHQDWLNGKEYKCKVSNKALPAPIEKTISKAKGQPREPRVYTLPPCRDELTKNQVSLTCLVKGFYPSDIAVEWESNGQPENNYKTTPPVLVSDGSFTLYSKLTVDKSRWQQGNVFSCSVMHEALHNHYTQKSLSLSPG
heavy: EVQLVESGGGLVKPGGSLRLSCAASGFTFSSYSMNWVRQAPGKGLEWVSSISSSSSYIYYADSVKGRFTISRDNAKNSLYLQMNSLRAEDTAVYYCARGAPIGAAAGWFDPWGQGTLVTVSSASTKGPSVFPLAPSSKSTSGGTAALGCLVKDYFPEPVTVSWNSGALTSGVHTFPAVLQSSGLYSLSSVVTVPSSSLGTQTYICNVNHKPSNTKVDKKVEPKSCDKTHTCPPCPAPELLGGPSVFLFPPKPKDTLMISRTPEVTCVVVDVSHEDPEVKFNWYVDGVEVHNAKTKPREEQYNSTYRVVSVLTVLHQDWLNGKEYKCKVSNKALPAPIEKTISKAKGQPREPQVCTLPPSRDELTENQVSLTCLVKGFYPSDIAVEWESNGQPENNYKTTPPVLDSDGSFFLYSWLTVDKSRWQQGNVFSCSVMHEALHNHYTQKSLSLSPG
light: DIQMTQSPSSVSASVGDRVTITCRASQGISSWLAWYQQKPGKAPKLLIYAASSLQSGVPSRFSGSGSGTDFTLTISSLQPEDFATYYCQQGVSFPRTFGGGTKVEIKRTVAAPSVFIFPPSDEQLKSGTASVVCLLNNFYPREAKVQWKVDNALQSGNSQESVTEQDSKDSTYSLSSTLTLSKADYEKHKVYACEVTHQGLSSPVTKSFNRGEC
notes: Trispecific F3' format: CLEC12A scFv-Fc paired with NKG2D Fab-Fc; Stressed and control samples of the stability studies are the same molecule; also called AB0237
B1 was tested, and the Kd (mFc-hNKG2D) was 727 nM, the Kd (Human CLEC12A-His) was 1.07 nM and the koff (Human CLEC12A-His) was 0.000853 s⁻¹. For the same binder, the kon (Human CLEC12A-His) was 799000 M⁻¹ s⁻¹.
